Experimental data published in the supplement of paper PMC7877785.
± gives the uncertainty stated by the source.

Test: self-splicing fitness, log relative to wild type (ln ratio); higher = more splicing; Tetrahymena group I intron in knt gene, E. coli kanamycin selection, DiMSum; sequences stand for … in CUCUCU…GGAGGGAAAAGUUAUCAGGCAUGCACCUGGUAGCUAGUCUUUAAACCAAUAGAUUGCAUCGGUUUAAAAGGCAAGACCGUCAAAUUGCGGGAAAGGGGUCAACAGCCGUUCAGUACCAAGUCUCAGGGGAAACUUUGAGAUGGCCUUGCAAAGGGUAUGGUAAUAAGCUGACGGACAUGGUCCUAACCACGCAGCCAAGUCCUAAGUCAACAGAUCUUCUGUUGAUAUGGAUGCAGUUCACAGACUAAAUGUCGGUCGGGGAAGAUGUAUUCUUCUCAUAAGAUAUAGUCGGACCUCUCCUUAAUGGGAGCUAGCGGAUGAAGUGAUGCAACACUGGAGCCGCUGGGAACUAAUUUGUAUGCGAAAGUAUAUUGAUUAGUUUUGGAGUACUCGUGGUCG
Procedure, shortened: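 Colonies from six replicate transformations of E. coli BL21(DE3) were pooled and amplicon-sequenced on an Illumina HiSeq 2500. The library placed an intron with all eight P1ex-region nucleotides randomised inside the knt kanamycin-resistance gene on pET-22b(+), and cells grew overnight at 37°C or 30°C on LB agar with or without 25 μg/mL kanamycin (plus 100 μg/mL carbenicillin, 50 μM IPTG, 0.2% rhamnose). Fitness is the DiMSum error-weighted combination of wild-type-normalised replicate fold changes, kanamycin versus none.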

| Sequence | self-splicing fitness (ln) (30 °C) | self-splicing fitness (ln) (37 °C) |
| --- | --- | --- |
| GGAAAGCAAUAUUACGAAAC | -1.37 ± 0.13 | -0.659 ± 0.17 |
| GGAAAGCAAUAUUACGAAAG | -4.01 ± 0.35 | -3.08 ± 0.35 |
| GGAAAGCAAUAUUACGAACC | -3.32 ± 0.33 | -1.2 ± 0.19 |
| GGAAAGCAAUAUUACGAAGA | -2.45 ± 0.3 | -1.57 ± 0.21 |
| GGAAAGCAAUAUUACGACAU | -0.445 ± 0.013 | -0.0162 ± 0.033 |
| GGAAAGCAAUAUUACGACCU | -0.756 ± 0.15 | -0.363 ± 0.18 |
| GGAAAGCAAUAUUACGAGAA |  | -1.29 ± 0.27 |
| GGAAAGCAAUAUUACGAGGA | -2.88 ± 0.21 | -1.93 ± 0.24 |
| GGAAAGCAAUAUUACGAGUG | -3.38 ± 0.12 | -1.85 ± 0.1 |
| GGAAAGCAAUAUUACGAUGC | -0.209 ± 0.087 | -0.26 ± 0.12 |
| GGAAAGCAAUAUUACGCAAG | -1.26 ± 0.14 | -1.13 ± 0.18 |
| GGAAAGCAAUAUUACGCAGA | -3.75 ± 0.28 | -1.52 ± 0.18 |
| GGAAAGCAAUAUUACGCGUA | -1.45 ± 0.14 | -1.52 ± 0.13 |
| GGAAAGCAAUAUUACGCUGU | -1.07 ± 0.11 | -0.375 ± 0.17 |
| GGAAAGCAAUAUUACGCUUA | -0.976 ± 0.17 | -0.998 ± 0.19 |
| GGAAAGCAAUAUUACGGCCA | -0.368 ± 0.081 | -0.0522 ± 0.1 |
| GGAAAGCAAUAUUACGGUCU | -2.31 ± 0.12 | -1.17 ± 0.15 |
| GGAAAGCAAUAUUACGGUUC | -3.33 ± 0.43 | -2.23 ± 0.49 |
| GGAAAGCAAUAUUACGUAAU | -1.3 ± 0.07 | -1.23 ± 0.12 |
| GGACAGCAAUAUUACGAGCC | -1.49 ± 0.15 | -2.56 ± 0.25 |
| GGACAGCAAUAUUACGAGUG | -3.32 ± 0.17 | -1.79 ± 0.15 |
| GGACAGCAAUAUUACGAUAC | -0.672 ± 0.084 | -0.478 ± 0.098 |
| GGACAGCAAUAUUACGAUCA | -0.381 ± 0.087 | 0.0425 ± 0.11 |
| GGACAGCAAUAUUACGCAAG | -1.69 ± 0.11 | -1.41 ± 0.12 |
| GGACAGCAAUAUUACGCACG | -0.391 ± 0.084 | 0.295 ± 0.1 |

| Sequence | self-splicing fitness (ln) (30 °C) | self-splicing fitness (ln) (37 °C) |
| --- | --- | --- |
| GGACAGCAAUAUUACGCAUG | -0.84 ± 0.085 | -0.235 ± 0.11 |
| GGACAGCAAUAUUACGCAUU | -0.834 ± 0.062 | -0.622 ± 0.078 |
| GGACAGCAAUAUUACGCCGA | -0.609 ± 0.11 | -0.306 ± 0.12 |
| GGACAGCAAUAUUACGCCGC |  | -1.06 ± 0.5 |
| GGACAGCAAUAUUACGCCGG | -3.95 ± 0.48 | -2.11 ± 0.32 |
| GGACAGCAAUAUUACGCCUC | -0.953 ± 0.32 | -0.751 ± 0.3 |
| GGACAGCAAUAUUACGCCUG | -2.65 ± 0.15 | -0.758 ± 0.13 |
| GGACAGCAAUAUUACGCGAU | -2.52 ± 0.17 | -2.52 ± 0.17 |
| GGACAGCAAUAUUACGCGCG | 0.181 ± 0.094 | -0.742 ± 0.11 |
| GGACAGCAAUAUUACGCUCG | -0.123 ± 0.086 | -0.0297 ± 0.11 |
| GGACAGCAAUAUUACGCUCU | -2.19 ± 0.25 |  |
| GGACAGCAAUAUUACGCUGU | -2.73 ± 0.21 | -2.96 ± 0.31 |
| GGACAGCAAUAUUACGGAGA | -2.98 ± 0.15 | -2.61 ± 0.2 |
| GGACAGCAAUAUUACGGGAU | -2.05 ± 0.087 | -0.814 ± 0.1 |
| GGACAGCAAUAUUACGGGGA | -2.72 ± 0.16 | -3.05 ± 0.26 |
| GGACAGCAAUAUUACGGGUA | -2.33 ± 0.11 | -1.67 ± 0.093 |
| GGACAGCAAUAUUACGGUGA | -0.838 ± 0.063 | -0.167 ± 0.071 |
| GGACAGCAAUAUUACGGUUC | -3.64 ± 0.15 | -1.82 ± 0.14 |
| GGACAGCAAUAUUACGUGGG | -2.49 ± 0.12 | -2.28 ± 0.12 |
| GGACAGCAAUAUUACGUUCG | -0.223 ± 0.076 | 0.0323 ± 0.095 |
| GGACAGCAAUAUUACGUUGG | -1.69 ± 0.088 | -0.723 ± 0.11 |
| GGAGAGCAAUAUUACGAAAC | -2.48 ± 0.29 | -1.36 ± 0.47 |
| GGAGAGCAAUAUUACGACCU | -1.9 ± 0.24 | -0.666 ± 0.26 |
| GGAGAGCAAUAUUACGACGU | -1.29 ± 0.2 | -0.823 ± 0.25 |
| GGAGAGCAAUAUUACGAGAG | -3.07 ± 0.25 | -2.31 ± 0.33 |

| Sequence | self-splicing fitness (ln) (30 °C) | self-splicing fitness (ln) (37 °C) |
| --- | --- | --- |
| GGAGAGCAAUAUUACGAGGC | -2.83 ± 0.23 | -1.95 ± 0.37 |
| GGAGAGCAAUAUUACGCACU | -2.77 ± 0.49 | -1.94 ± 0.46 |
| GGAGAGCAAUAUUACGCGCU | -2.69 ± 0.25 | -1.67 ± 0.28 |
| GGAGAGCAAUAUUACGCGGU | -3.77 ± 0.47 |  |
| GGAGAGCAAUAUUACGCUAG | -1.3 ± 0.36 | -0.901 ± 0.42 |
| GGAGAGCAAUAUUACGGGGA | -3.31 ± 0.49 |  |
| GGAGAGCAAUAUUACGGGUA | -3.5 ± 0.28 | -2.62 ± 0.2 |
| GGAGAGCAAUAUUACGGUAC | -3.27 ± 0.5 | -2.07 ± 0.24 |
| GGAGAGCAAUAUUACGUAAU |  | -0.814 ± 0.2 |
| GGAGAGCAAUAUUACGUAGC |  | -0.906 ± 0.37 |
| GGAGAGCAAUAUUACGUCUG | -1.13 ± 0.2 | -0.491 ± 0.25 |
| GGAGAGCAAUAUUACGUGCU | -2.88 ± 0.27 |  |
| GGAGAGCAAUAUUACGUUUU | -3.36 ± 0.23 | -1.15 ± 0.3 |
| GGAUAGCAAUAUUACGAUCC | -1.95 ± 0.45 |  |
| GGAUAGCAAUAUUACGCAAG | -1.28 ± 0.27 | -0.103 ± 0.34 |
| GGAUAGCAAUAUUACGCACG | -1.12 ± 0.16 | -0.963 ± 0.15 |
| GGAUAGCAAUAUUACGGACC | -0.822 ± 0.22 | -0.154 ± 0.25 |
| GGAUAGCAAUAUUACGGGGC | -3.69 ± 0.23 | -1.95 ± 0.16 |
| GGAUAGCAAUAUUACGGUCA | -0.171 ± 0.081 | -0.0595 ± 0.11 |
| GGAUAGCAAUAUUACGGUCC |  | -2.68 ± 0.48 |
| GGAUAGCAAUAUUACGGUUA | -0.755 ± 0.2 | 0.0186 ± 0.17 |
| GGAUAGCAAUAUUACGUAAG | -1.87 ± 0.17 | -0.386 ± 0.2 |
| GGAUAGCAAUAUUACGUGCG | -0.974 ± 0.094 | -0.046 ± 0.12 |
| GGAUAGCAAUAUUACGUUGC | -4.63 ± 0.36 | -2.2 ± 0.28 |
| GGAUAGCAAUAUUACGUUUU | -1.33 ± 0.11 | -1.62 ± 0.14 |

| Sequence | self-splicing fitness (ln) (30 °C) | self-splicing fitness (ln) (37 °C) |
| --- | --- | --- |
| GGCAAGCAAUAUUACGAAAG | -2.97 ± 0.28 |  |
| GGCAAGCAAUAUUACGAGCC | -2.21 ± 0.43 | -1.52 ± 0.44 |
| GGCAAGCAAUAUUACGAGCG | -0.697 ± 0.073 | 0.427 ± 0.097 |
| GGCAAGCAAUAUUACGAGUA | -1.52 ± 0.15 | -0.685 ± 0.13 |
| GGCAAGCAAUAUUACGAGUG | -1.1 ± 0.069 | -0.88 ± 0.071 |
| GGCAAGCAAUAUUACGAUUC | 0.184 ± 0.062 | 0.142 ± 0.091 |
| GGCAAGCAAUAUUACGCACA | -0.684 ± 0.09 | 0.564 ± 0.11 |
| GGCAAGCAAUAUUACGCCCC |  | -1.27 ± 0.35 |
| GGCAAGCAAUAUUACGCGCA | 0.145 ± 0.077 | 0.461 ± 0.11 |
| GGCAAGCAAUAUUACGCUUG | -3.26 ± 0.2 | -3.49 ± 0.34 |
| GGCAAGCAAUAUUACGGAAU | -0.693 ± 0.075 | -0.506 ± 0.1 |
| GGCAAGCAAUAUUACGGCAC | -0.671 ± 0.071 | 0.369 ± 0.12 |
| GGCAAGCAAUAUUACGGCAG | -2.32 ± 0.14 | -1.15 ± 0.15 |
| GGCAAGCAAUAUUACGGCAU | -0.207 ± 0.043 | 0.531 ± 0.06 |
| GGCAAGCAAUAUUACGGUAA | -1.28 ± 0.097 | 0.108 ± 0.094 |
| GGCAAGCAAUAUUACGGUAU | -1.17 ± 0.068 | -0.119 ± 0.077 |
| GGCAAGCAAUAUUACGGUUG | -1.16 ± 0.063 | -0.62 ± 0.083 |
| GGCAAGCAAUAUUACGUAGA | 0.226 ± 0.077 | 0.582 ± 0.11 |
| GGCAAGCAAUAUUACGUAGU | -1.52 ± 0.098 | -0.197 ± 0.11 |
| GGCAAGCAAUAUUACGUCCG | -3.73 ± 0.27 | -1.61 ± 0.2 |
| GGCAAGCAAUAUUACGUGAA | -0.509 ± 0.091 | 0.184 ± 0.11 |
| GGCAAGCAAUAUUACGUUCU | -0.68 ± 0.089 | 0.436 ± 0.11 |
| GGCAAGCAAUAUUACGUUUC | -0.714 ± 0.1 | -0.0706 ± 0.14 |
| GGCCAGCAAUAUUACGAAAG | -4.21 ± 0.37 | -2.71 ± 0.41 |
